Reference: doi:10.1101/2024.07.22.604500

Tests used:
[1] = biological target: unmodified H1.0-containing chromatosome (CH0) (UniProt P07305)
[2] = biological target: H1.0–K63-Ub3 chromatosome (CH3) (UniProt P07305)
[3] = biological target: H1.0–K63-Ub2 chromatosome (CH2) (UniProt P07305)
[4] = biological target: H1.0–Ub chromatosome (CH1) (UniProt P07305)

H2A conversion in the in vitro ubiquitylation assay, 5 and 10 min (3% and 5%) [1]: 5%
H2A conversion in the in vitro ubiquitylation assay, 5 and 10 min (28% and 48%) [2]: 48%
H2A conversion in the in vitro ubiquitylation assay, 5 and 10 min (13% and 25%) [3]: 25%
H2A conversion in the in vitro ubiquitylation assay, 5 and 10 min (2% and 3%) [4]: 3%
Substance: RNF168^1–193 (from UniProt Q8IYW5 1-193) (domain or fragment)
